# Numbering of substitutions follows the chain as printed.
# B1: ANTI-IGF-1R Ab# A (ganitumab) (antibody, V domains shown)
# VH: QVQLQESGPGLVKPSGTLSLTCAVSGGSISSSNWWSWVRQPPGKGLEWIGEIYHSGSTNYNPSLKSRVTISVDKSKNQFSLKLSSVTAADTAVYYCARWTGRTDAFDIWGQGTMVTVSS
# VL: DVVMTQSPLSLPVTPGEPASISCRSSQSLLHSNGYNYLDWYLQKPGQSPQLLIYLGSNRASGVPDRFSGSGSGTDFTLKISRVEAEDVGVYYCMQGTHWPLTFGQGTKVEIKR
# B2: P4-G1-M1.3 (bispecific antibody, human IgG1, kappa)
# heavy: not shown
# light: DIQMTQSPSSLSASLGDRVTITCRASQGISSYLAWYQQKPGKAPKLLIYAKSTLQSGVPSRFSGSGSGTDFTLTISSLQPEDSATYYCQQYWTFPLTFGGGTKVEIKRTVAAPSVFIFPPSDEQLKSGTASVVCLLNNFYPREAKVQWKVDNALQSGNSQESVTEQDSKDSTYSLSSTLTLSKADYEKHKVYACEVTHQGLSSPVTKSFNRGEC
# B3: B60-G1-M78 (bispecific antibody, human IgG1, lambda)
# heavy: not shown
# light: SSELTQDPAVSVALGQTVRITCQGDSLRSYYASWYQQKPGQAPVLVIYGKNNRPSGIPDRFSGSSSGNTASLTITGAQAEDEADYYCNSRDWPGNQWVFGGGTKVTVLGQPKAAPSVTLFPPSSEELQANKATLVCLVSDFYPGAVTVAWKADGSPVKVGVETTKPSKQSNNKYAASSYLSLTPEQWKSHRSYSCRVTHEGSTVEKTVAPAECS
# B4: M7-G1-M57 (bispecific antibody, human IgG1, lambda)
# heavy: not shown
# light: B3 light with W92T, Q96K, L108I
# B5: M7-G1-P4 (bispecific antibody, human IgG1, lambda)
# heavy: not shown
# light: B3 light with W92T, Q96K, L108I
# B6: B60-G1-P4 (bispecific antibody, human IgG1, lambda)
# heavy: not shown
# light: B3 light
# B7: B60-G1-M57 (bispecific antibody, human IgG1, lambda)
# heavy: not shown
# light: B3 light
# B8: M57-G1-M1.3 (bispecific antibody, human IgG1, kappa)
# heavy: not shown
# light: B2 light with M4L, K51R, L54R, D70E, F94W
# B9: M78-G1-M1.3 (bispecific antibody, human IgG1, kappa)
# heavy: not shown
# light: B2 light with K51S, L54R, A84G, T93A
# B10: M57-G1-C8 (bispecific antibody, human IgG1, kappa)
# heavy: not shown
# light: B2 light with M4L, K51R, L54R, D70E, F94W
# B11: P4-G1-P6 (bispecific antibody, human IgG1, kappa)
# heavy: not shown
# light: B2 light
# B12: M78-G1-C8 (bispecific antibody, human IgG1, kappa)
# heavy: not shown
# light: B2 light with K51S, L54R, A84G, T93A
# B13: M57-G1-P6 (bispecific antibody, human IgG1, kappa)
# heavy: not shown
# light: B2 light with M4L, K51R, L54R, D70E, F94W
# B14: M78-G1-P6 (bispecific antibody, human IgG1, kappa)
# heavy: not shown
# light: B2 light with K51S, L54R, A84G, T93A
# B15: M27/M7-G1-M57 (bispecific antibody, human IgG1, lambda)
# heavy: not shown
# light: B3 light with W92T, Q96K, L108I
# B16: M27/M7-G1-M78 (bispecific antibody, human IgG1, lambda)
# heavy: not shown
# light: B3 light with W92T, Q96K, L108I
# B17: M27/M7-G1-P4 (bispecific antibody, human IgG1, lambda)
# heavy: not shown
# light: B3 light with W92T, Q96K, L108I
# B18: M27-G1-M57 (bispecific antibody, human IgG1, lambda)
# heavy: not shown
# light: B3 light with W92T, N95D
# B19: M27-G1-P4 (bispecific antibody, human IgG1, lambda)
# heavy: not shown
# light: B3 light with W92T, N95D
# B20: M27-G1-M78 (bispecific antibody, human IgG1, lambda)
# heavy: not shown
# light: B3 light with W92T, N95D
# B21: Anti-IGF-1R Ab# B (cixutumumab) (antibody, V domains shown)
# VH: EVQLVQSGAEVKKPGSSVKVSCKASGGTFSSYAISWVRQAPGQGLEWMGGIIPIFGTANYAQKFQGRVTITADKSTSTAYMELSSLRSEDTAVYYCARAPLRFLEWSTQDHYYYYYMDVWGKGTTVTVSS
# VL: SSELTQDPAVSVALGQTVRITCQGDSLRSYYATWYQQKPGQAPILVIYGENKRPSGIPDRFSGSSSGNTASLTITGAQAEDEADYYCKSRDGSGQHLVFGGGTKLTVLG
# Target: T1, IGF-1R (receptor for insulin-like growth factor 1), endogenous on human tumor cell lines (human, UniProt P08069 31-1367)
# T1 sequence (P08069 31-1367): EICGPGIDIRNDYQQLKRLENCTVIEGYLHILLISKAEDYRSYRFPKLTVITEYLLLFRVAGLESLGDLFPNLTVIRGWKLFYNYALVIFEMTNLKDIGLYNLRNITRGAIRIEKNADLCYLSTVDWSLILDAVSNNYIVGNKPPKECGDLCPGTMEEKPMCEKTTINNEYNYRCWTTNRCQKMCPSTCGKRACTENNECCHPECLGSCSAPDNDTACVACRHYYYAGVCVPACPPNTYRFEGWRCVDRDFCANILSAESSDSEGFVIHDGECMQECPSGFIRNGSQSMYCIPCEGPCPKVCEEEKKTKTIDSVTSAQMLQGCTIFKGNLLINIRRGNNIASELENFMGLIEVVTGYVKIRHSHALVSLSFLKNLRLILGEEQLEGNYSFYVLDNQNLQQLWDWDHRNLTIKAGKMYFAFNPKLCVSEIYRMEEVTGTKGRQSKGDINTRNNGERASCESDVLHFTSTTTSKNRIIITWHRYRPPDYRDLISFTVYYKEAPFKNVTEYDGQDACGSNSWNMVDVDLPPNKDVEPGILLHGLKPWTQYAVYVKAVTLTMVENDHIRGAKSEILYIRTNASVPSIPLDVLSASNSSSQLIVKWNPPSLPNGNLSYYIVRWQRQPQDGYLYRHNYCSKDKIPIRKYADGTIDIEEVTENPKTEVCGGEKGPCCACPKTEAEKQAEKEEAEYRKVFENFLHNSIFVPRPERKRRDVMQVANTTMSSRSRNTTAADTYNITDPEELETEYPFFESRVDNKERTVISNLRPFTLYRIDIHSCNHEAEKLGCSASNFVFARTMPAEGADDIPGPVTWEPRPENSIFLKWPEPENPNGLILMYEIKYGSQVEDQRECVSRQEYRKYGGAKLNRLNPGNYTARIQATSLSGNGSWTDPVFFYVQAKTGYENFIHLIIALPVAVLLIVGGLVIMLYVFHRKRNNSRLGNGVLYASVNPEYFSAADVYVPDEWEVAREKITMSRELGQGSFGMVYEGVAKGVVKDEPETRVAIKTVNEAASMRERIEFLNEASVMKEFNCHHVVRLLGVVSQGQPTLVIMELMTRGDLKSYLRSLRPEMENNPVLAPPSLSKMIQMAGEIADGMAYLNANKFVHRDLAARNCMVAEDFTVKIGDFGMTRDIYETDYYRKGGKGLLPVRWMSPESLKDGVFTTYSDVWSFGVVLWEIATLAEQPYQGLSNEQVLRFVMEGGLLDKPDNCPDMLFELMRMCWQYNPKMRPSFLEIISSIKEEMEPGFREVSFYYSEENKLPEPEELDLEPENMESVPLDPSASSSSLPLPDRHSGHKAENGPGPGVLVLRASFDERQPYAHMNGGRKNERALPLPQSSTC
# Test: cell-based or functional assay
Binder,pAKT IC50 (BxPC-3),pIGF-1R IC50 (BxPC-3)
B1,2.6e-10 M (inferred),1.5e-10 M (inferred)

# Target: T1, IGF-1R (receptor for insulin-like …)
# Test: cell-based or functional assay
# Remark: another data set of the same source
Binder,"pAKT IC50 (BxPC-3, IGF1 40 ng/ml) [M]","pAKT IC50 (BxPC-3, IGF1 400 ng/ml) [M]","pIGF1R IC50 (BxPC-3, IGF1 40 ng/ml) [M]","pIGF1R IC50 (BxPC-3, IGF1 400 ng/ml) [M]"
B2,1.4e-10,2.1e-10,1.2e-10,9.9e-11
B1,7.4e-09,9.1e-09,7.8e-10,2.5e-10

# Target: T2, ErbB3 (HER3), endogenous on human tumor cell lines (human, UniProt P21860 20-1342)
# T2 sequence (P21860 20-1342 limits assumed): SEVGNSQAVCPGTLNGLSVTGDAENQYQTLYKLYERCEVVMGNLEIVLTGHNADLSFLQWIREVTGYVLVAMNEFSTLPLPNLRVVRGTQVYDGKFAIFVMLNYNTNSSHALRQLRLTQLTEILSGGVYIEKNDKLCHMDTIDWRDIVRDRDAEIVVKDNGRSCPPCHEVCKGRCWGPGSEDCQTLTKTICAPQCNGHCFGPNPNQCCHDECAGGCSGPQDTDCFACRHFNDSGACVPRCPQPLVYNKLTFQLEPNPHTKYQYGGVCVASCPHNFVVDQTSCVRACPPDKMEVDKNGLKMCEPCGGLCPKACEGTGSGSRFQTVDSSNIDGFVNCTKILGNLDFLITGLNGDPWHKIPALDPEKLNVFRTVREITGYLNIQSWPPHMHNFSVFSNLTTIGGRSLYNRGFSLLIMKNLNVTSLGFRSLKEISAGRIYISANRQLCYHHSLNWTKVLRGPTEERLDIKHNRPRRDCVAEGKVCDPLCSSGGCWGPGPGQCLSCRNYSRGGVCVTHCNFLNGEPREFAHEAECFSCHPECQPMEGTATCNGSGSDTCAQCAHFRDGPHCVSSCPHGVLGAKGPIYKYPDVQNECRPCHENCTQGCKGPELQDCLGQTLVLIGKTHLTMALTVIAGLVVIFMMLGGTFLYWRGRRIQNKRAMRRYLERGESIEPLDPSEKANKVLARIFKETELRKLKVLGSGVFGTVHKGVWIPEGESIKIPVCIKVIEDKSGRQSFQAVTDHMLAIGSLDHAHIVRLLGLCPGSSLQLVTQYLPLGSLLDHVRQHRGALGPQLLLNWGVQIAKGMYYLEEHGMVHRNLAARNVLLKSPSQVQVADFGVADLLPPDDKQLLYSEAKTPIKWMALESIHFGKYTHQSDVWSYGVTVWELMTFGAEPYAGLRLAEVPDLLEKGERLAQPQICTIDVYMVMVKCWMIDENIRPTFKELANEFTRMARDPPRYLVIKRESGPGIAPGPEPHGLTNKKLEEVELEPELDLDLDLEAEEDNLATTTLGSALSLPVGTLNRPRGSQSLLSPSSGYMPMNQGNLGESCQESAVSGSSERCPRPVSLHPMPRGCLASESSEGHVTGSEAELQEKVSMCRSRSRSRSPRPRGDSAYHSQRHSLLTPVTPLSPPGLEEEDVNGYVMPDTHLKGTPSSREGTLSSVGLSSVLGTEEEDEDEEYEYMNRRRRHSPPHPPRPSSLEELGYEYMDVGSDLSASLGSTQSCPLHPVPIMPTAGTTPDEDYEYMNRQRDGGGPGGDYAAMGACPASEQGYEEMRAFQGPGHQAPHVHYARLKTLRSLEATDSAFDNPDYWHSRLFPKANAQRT
# Test: cell-based or functional assay
Binder,"pAKT IC50 (BxPC-3, HRG 20 ng/ml) [M]","pAKT IC50 (BxPC-3, HRG 200 ng/ml) [M]","pErbB3 IC50 (BxPC-3, HRG 20 ng/ml) [M]","pErbB3 IC50 (BxPC-3, HRG 200 ng/ml) [M]"
B2,3.97e-11,4.09e-11,3.12e-11,2.72e-11

# Target: T1, IGF-1R (receptor for insulin-like …)
# Test: cell-based or functional assay
# Remark: another data set of the same source
Binder,"% IGF1R Downregulation (A549, 24 h) [%]","% IGF1R Downregulation (BxPC-3, 24 h) [%]"
B2,72,71
B1,57,51

# Target: T1, IGF-1R (receptor for insulin-like …)
# Test: cell-based or functional assay
# Remark: another data set of the same source
Binder,pIGF1R IC50 (BxPC-3),pAKT IC50 (BxPC-3)
B2,1.1e-09 M (inferred),
B3,1.4e-09 M (inferred),
B4,2.1e-08 M (inferred),
B5,2.4e-09 M (inferred),
B6,2.2e-08 M (inferred),
B7,4.4e-09 M (inferred),
B1,1.6e-09 M (inferred),8e-11 M (inferred)

# Target: T2, ErbB3 (HER3), endogenous on human tumor …
# Test: cell-based or functional assay
# Remark: another data set of the same source
row,Binder,pErbB3 IC50 (BxPC-3)
1,B2,5.3e-11 M (inferred)
2,B3,1e-11 M (inferred)
3,B4,5.2e-11 M (inferred)
4,B5,2.4e-11 M (inferred)
5,B6,~2.4e-14 M (inferred)
6,B7,2.3e-11 M (inferred)

# Target: T1, IGF-1R (receptor for insulin-like …)
# Test: cell-based or functional assay
# Remark: another data set of the same source
Binder,pIGF1R % Inhibition (BxPC-3) [%],pIGF1R IC50 (BxPC-3)
B8,94,4.1e-10 M (inferred)
B9,97,5e-10 M (inferred)
B10,93,2.5e-10 M (inferred)
B11,91,1.6e-10 M (inferred)
B12,96,6.8e-10 M (inferred)
B13,92,2.5e-10 M (inferred)
B14,95,4.2e-10 M (inferred)
B2,92,1.8e-10 M (inferred)
B3,86,3.5e-09 M (inferred)
B15,91,7.5e-09 M (inferred)
B4,82,2.1e-08 M (inferred)
B16,91,1e-09 M (inferred)
B17,99,1.3e-08 M (inferred)
B5,93,2.4e-09 M (inferred)
B18,83,8.1e-09 M (inferred)
B6,88,4.4e-09 M (inferred)
B19,88,3e-09 M (inferred)
B7,85,1e-08 M (inferred)
B20,87,1.4e-09 M (inferred)

# Target: T2, ErbB3 (HER3), endogenous on human tumor …
# Test: cell-based or functional assay
# Remark: another data set of the same source
Binder,pErbB3 % Inhibition (BxPC-3) [%],pErbB3 IC50 (BxPC-3)
B8,99,1.4e-10 M (inferred)
B9,99,1.4e-10 M (inferred)
B10,98,6.5e-11 M (inferred)
B11,95,3.9e-11 M (inferred)
B12,98,2.3e-10 M (inferred)
B13,98,7.9e-11 M (inferred)
B14,100,1.4e-10 M (inferred)
B2,94,5.5e-11 M (inferred)
B3,115,8e-11 M (inferred)
B15,179,1.5e-10 M (inferred)
B4,124,5.2e-11 M (inferred)
B16,140,1.1e-10 M (inferred)
B17,111,4e-11 M (inferred)
B5,109,2.4e-11 M (inferred)
B18,88,3.1e-10 M (inferred)
B6,99,4e-11 M (inferred)
B19,106,1e-10 M (inferred)
B7,162,1.2e-09 M (inferred)
B20,107,1.2e-10 M (inferred)

# Target: T1, IGF-1R (receptor for insulin-like …)
# Test: cell-based or functional assay
# Remark: another data set of the same source
Binder,pAKT IC50 (BxPC-3 50% ErbB3 KD) [M],pAKT IC50 (BxPC-3 50% IGF1R KD) [M],pAKT IC50 (BxPC-3 Vector Control) [M]
B1,1.3e-07,4e-08,2.1e-08

# Target: T1, IGF-1R (receptor for insulin-like …)
# Test: cell-based or functional assay
# Remark: another data set of the same source
Binder,pAKT IC50 (BxPC-3),pAKT IC50 (DU145),pIGF-1R IC50 (BxPC-3),pIGF-1R IC50 (DU145)
B21,1.4e-08 M (inferred),9.8e-09 M (inferred),2.4e-09 M (inferred),9.1e-10 M (inferred)

# From patent US20130236459A1 (MERRIMACK PHARMACEUTICALS, published 2013)
